# Data taken from US20070111265A1, “Ligands for mineralocorticoid receptor (MR) and methods for screening for or designing MR ligands” (Van Andel Research Institute, priority 2005, published 2007).
# T1: human MR LBD (residues 727-984) containing a C808S mutation, 6xHis-GST fusion protein (human), P08235
# T1 chain: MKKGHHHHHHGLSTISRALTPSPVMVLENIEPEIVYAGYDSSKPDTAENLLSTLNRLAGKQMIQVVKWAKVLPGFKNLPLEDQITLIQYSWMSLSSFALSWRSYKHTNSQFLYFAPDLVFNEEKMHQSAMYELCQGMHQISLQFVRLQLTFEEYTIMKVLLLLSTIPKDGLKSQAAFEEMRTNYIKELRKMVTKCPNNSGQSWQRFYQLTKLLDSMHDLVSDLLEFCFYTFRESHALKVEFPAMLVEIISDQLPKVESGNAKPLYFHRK
# Biological target: T1, human MR LBD (residues 727-984) …
# Experiment: AlphaScreen peptide competition; corticosterone
# Details: modification not given
row,Binder,IC50
1,SKDHQLLRYLLDKDE [SRC1-3],1600 nM
2,QEKHRILHKLLQNGN [SRC3-2],4600 nM
3,KEKHKILHRLLQDSS [SRC2-2],2200 nM

# Now those with a lower IC50, led by results:
row,IC50,Binder
1,1400 nM,TERHKILHRLLQESS [SRC1-2]
2,1400 nM,KENNALLRYLLDRDD [SRC3-3]
